These results are taken from US20190169232A1.

For assay [1], the target named is LAIR-1 on human monocytes (human) (UniProt Q6GTX8). In words: co-immunoprecipitation from human monocytes, IP anti-LAIR-1, blot anti-SHP-1; cells without C1q and without HMGB1.
Assay [2] shares this target. The assay can be described thus: co-immunoprecipitation from human monocytes, IP anti-LAIR-1, blot anti-SHP-1; cells treated with C1q alone.
The target is the same in assay [3]. In words: co-immunoprecipitation from human monocytes, IP anti-LAIR-1, blot anti-SHP-1; cells treated with HMGB1 alone.
Assay [4] has the same target. The assay can be described thus: co-immunoprecipitation from human monocytes, IP anti-LAIR-1, blot anti-SHP-1; cells treated with C1q and HMGB1.
In assay [5] the target is C1q purified from pooled normal human sera (human) (UniProt P02746). In words: SPR kinetics, C1q immobilised on a CM5 chip, HMGB1 redox form as analyte in a concentration series, 1:1 fit. Background: In SPR one partner is held on a chip, and binding of the other changes the refractive index at the surface.
C1q purified from pooled normal human sera (human), sequence (chain, as listed by the source, chain 1 of 3): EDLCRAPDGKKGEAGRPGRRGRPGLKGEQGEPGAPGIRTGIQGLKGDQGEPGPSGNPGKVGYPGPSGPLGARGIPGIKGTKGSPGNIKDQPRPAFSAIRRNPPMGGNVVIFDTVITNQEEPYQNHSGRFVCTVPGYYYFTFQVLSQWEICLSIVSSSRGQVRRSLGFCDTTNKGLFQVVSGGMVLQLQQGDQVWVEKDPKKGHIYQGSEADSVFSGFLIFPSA
C1q purified from pooled normal human sera (human), sequence (P02746 28-253, chain 2 of 3): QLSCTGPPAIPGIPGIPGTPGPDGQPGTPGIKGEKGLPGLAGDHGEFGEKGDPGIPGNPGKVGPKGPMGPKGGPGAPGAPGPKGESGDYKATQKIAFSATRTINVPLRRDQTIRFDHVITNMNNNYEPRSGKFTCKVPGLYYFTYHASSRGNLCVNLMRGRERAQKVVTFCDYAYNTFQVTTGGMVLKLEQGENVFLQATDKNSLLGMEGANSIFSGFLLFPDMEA
C1q purified from pooled normal human sera (human), sequence (P02747 29-245, chain 3 of 3): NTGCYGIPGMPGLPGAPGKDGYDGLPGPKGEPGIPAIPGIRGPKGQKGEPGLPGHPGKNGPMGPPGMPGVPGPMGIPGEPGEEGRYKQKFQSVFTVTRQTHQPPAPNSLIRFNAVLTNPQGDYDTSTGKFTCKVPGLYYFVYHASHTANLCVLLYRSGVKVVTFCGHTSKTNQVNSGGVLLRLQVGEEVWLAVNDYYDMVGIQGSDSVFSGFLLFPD

LAIR-1 on human monocytes (human), sequence (Q6GTX8 22-287): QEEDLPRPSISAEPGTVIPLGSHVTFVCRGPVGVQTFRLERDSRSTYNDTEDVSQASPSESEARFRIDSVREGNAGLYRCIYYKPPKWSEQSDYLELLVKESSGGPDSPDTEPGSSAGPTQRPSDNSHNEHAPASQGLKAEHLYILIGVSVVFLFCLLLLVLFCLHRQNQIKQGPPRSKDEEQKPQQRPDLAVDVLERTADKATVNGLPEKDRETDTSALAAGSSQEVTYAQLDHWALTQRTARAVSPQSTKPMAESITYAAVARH
Oxidized HMGB1 (ligand), sequence (P09429 whole entry): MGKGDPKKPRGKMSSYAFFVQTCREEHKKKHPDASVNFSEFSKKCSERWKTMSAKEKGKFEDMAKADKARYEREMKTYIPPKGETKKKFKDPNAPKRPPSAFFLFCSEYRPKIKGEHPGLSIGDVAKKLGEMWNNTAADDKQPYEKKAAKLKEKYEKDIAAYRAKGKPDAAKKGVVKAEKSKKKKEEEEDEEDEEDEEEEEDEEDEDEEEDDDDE

With SHP-1 (from UniProt P29350 1-595), the signal intensity ratio (number under the SHP-1 blot) in assay [1] was determined as 1; in assay [2], 2.6; in assay [3], 0.7; in assay [4], 4.4.
One may read the Kd as the free concentration of one partner at which half of the binding sites on the other are occupied at equilibrium, for simple one-to-one binding. High values mean weaker binding, low ones tighter binding. In assay [5], Oxidized HMGB1 (ligand) had a Kd of 1560 nM.
